The source of these data is article PMC3795024, “A Structure-Guided Mutation in the Major Capsid Protein Retargets BK Polyomavirus” (PLoS Pathogens, 2013).

By stoichiometry N is commonly meant the number of molecules, sites or subunits per partner or assembly.

Experiment [1] deals with BKPyV VP1 pentamer (30-300) F75V (BK polyomavirus (BKPyV)). The experiment in a line: SEC; gel filtration of purified mutant pentamers; data not shown. A general note: Size exclusion chromatography separates by hydrodynamic size, large species first.
For experiment [2], the target named is BKPyV VP1 pentamer (amino acids 30-300 of BKPyV VP1, His-tag cleaved) (BK polyomavirus (BKPyV)). The experiment in a line: crystal structure; sitting drop vapor diffusion at 20°C, 16–18% PEG 3,350, 0.1 M HEPES pH 7.5, 0.25 M LiCl, protein with 20 mM DTT; unliganded and soaked with 20 mM GD3 oligosaccharide.
In experiment [3] the target is BKPyV VP1 pentamer (30-300) S274A/T276A (BK polyomavirus (BKPyV)). The experiment in a line: SEC; gel filtration of purified mutant pentamers; data not shown.
For experiment [4], the target named is BKPyV VP1 pentamer (30-300) L62W (BK polyomavirus (BKPyV)). Described as above.
Experiment [5] has as its target BKPyV VP1 pentamer (30-300) F75W (BK polyomavirus (BKPyV)). The description is as above.
Experiment [6] addresses T1, SV40 VP1 (Betapolyomavirus macacae, UniProt P03087).
T1 construct: recombinant VP1 pentamer, detected with anti-poly-histidine antibody
Put plainly: STD NMR. It counts as binding. The conditions noted are these: 19-22 µM protein, 1 mM ligand, pH 7.5, 283 K, D2O.

The target of experiment [7] is BKPyV VP1 pentamer (30-300) T276A (BK polyomavirus (BKPyV)). The experiment in a line: SEC; gel filtration of purified mutant pentamers; data not shown.
Experiment [8] addresses BKPyV VP1 pentamer (30-300) H138A (BK polyomavirus (BKPyV)). The description is as above.
Experiment [9] concerns the target BKPyV VP1 pentamer (30-300) S274A (BK polyomavirus (BKPyV)). The description is as above.

On to “BKPyV VP1 pentamer (30-300) F75V (domain or fragment)”, for which the stoichiometry N in [1] is 5.

In experiment [2], “BKPyV VP1 pentamer (amino acids 30-300 of BKPyV VP1, His-tag cleaved) (domain or fragment)” returned a stoichiometry N of 5. The compound “BKPyV VP1 pentamer (30-300) S274A/T276A (domain or fragment)” had a stoichiometry N in [3] of 5. Consider “BKPyV VP1 pentamer (30-300) L62W (domain or fragment)”, for which the stoichiometry N in experiment [4] is 5. In experiment [5], “BKPyV VP1 pentamer (30-300) F75W (domain or fragment)” returned a stoichiometry N of 5. As for `CC(=O)N[C@H]1[C@H](O[C@@H]2[C@H](O[C@]3(C(=O)O)C[C@H](O)[C@@H](NC(C)=O)[C@H]([C@H](O)[C@H](O)CO)O3)[C@@H](O)[C@H](O[C@H]3[C@H](O)[C@@H](O)C(O)O[C@@H]3CO)O[C@@H]2CO)O[C@H](CO)[C@H](O)[C@@H]1O[C@@H]1O[C@H](CO)[C@H](O)[C@H](O)[C@H]1O` (stereo partly drawn) [GM1, GM1 oligosaccharide], the “STD NMR” value in experiment [6] is “as efficient as for the SV40 VP1-GM1 pair, which was included for comparison”. In the case of “BKPyV VP1 pentamer (30-300) T276A (domain or fragment)”, in experiment [7], the stoichiometry N is 5. Compound “BKPyV VP1 pentamer (30-300) H138A (domain or fragment)” yielded a stoichiometry N in experiment [8] of 5. On to “BKPyV VP1 pentamer (30-300) S274A (domain or fragment)”, for which, in experiment [9], the stoichiometry N was 5.
